Results from patent US10260068B2, “Prophylactic agent and therapeutic agent for fibrodysplasia ossificans progressiva” (Sumitomo Dainippon Pharma Co., Ltd., priority 2014, dated 2019).

How the values were obtained:
wild type ACVR1 = biological target: T1, wild type ACVR1 (Homo sapiens, UniProt Q04771); assay: Luciferase reporter (BMP responsive sequence) transcription activity in gene-corrected clone derived cells; type: cell-based; settings: ligand 1, 10, 100 ng/mL, 16 hours
T1 construct: an iPS cell line with the ACVR1 gene mutation repaired to the normal type (wild type) by gene repair by a BAC knockin vector; endogenous in cells; host or cells: mesenchymal stem cell-like cells differentiated from the gene-corrected iPS cell clone
T1 sequence (Q04771 21-509): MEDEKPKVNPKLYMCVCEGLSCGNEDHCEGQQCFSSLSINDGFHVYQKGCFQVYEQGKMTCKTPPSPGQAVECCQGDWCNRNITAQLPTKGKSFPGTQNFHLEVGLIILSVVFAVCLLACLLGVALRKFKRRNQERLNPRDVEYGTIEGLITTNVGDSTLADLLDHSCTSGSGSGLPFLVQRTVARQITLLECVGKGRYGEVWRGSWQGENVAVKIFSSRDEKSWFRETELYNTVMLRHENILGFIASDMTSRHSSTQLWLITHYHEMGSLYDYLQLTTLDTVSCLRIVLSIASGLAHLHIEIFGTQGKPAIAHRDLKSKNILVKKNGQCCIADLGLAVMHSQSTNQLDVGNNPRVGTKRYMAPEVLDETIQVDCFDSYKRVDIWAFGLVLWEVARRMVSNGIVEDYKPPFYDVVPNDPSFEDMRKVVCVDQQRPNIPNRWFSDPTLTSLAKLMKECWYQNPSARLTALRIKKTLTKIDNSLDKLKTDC
From the text: Following the method of Yamanaka et al. (Cell, 2007, 131 (5), […]), FOP patient-derived iPS cells (hereunder also referred to as “patient-derived iPS cell line”) were established. The patient cells were confirmed to be cells having a typical FOP-associated mutation in the ACVR1 gene. The mutation is a substitution of the 206th arginine residue of the amino acid sequence of ACVR1 (the amino acid sequence listed as SEQ ID NO: 10) with a histidine residue. Next, for use as a control, an iPS cell line with the ACVR1 gene mutation repaired to the normal type (wild type) by gene repair by a BAC knockin vector (hereunder also referred to as “gene-corrected iPS cell clone” or “gene-rescued iPS cell clone”) was established.
The patient-derived iPS cell line and gene-corrected iPS cell line were cultured on the matrix of a Matrigel coated plate (trade name: Growth Factor Reduced (GFR)BD Matrigel® by Becton & Dickinson), using mTeSR1 (Stem Cell Technologies) for 2 days under feeder-free conditions. Next, using serum-free medium [F12 Nutrient Mixture (product of Gibco)/Iscove's Modified Dulbecco's Medium (IMDM) (product of Sigma-Aldrich Japan, KK.)/0.5% bovine serum albumin (BSA) (product of Sigma-Aldrich Japan, KK.)/1% Chemically Defined Lipid (CD-Lipid) (product of Gibco, trade name: Chemically Defined Lipid Concentrate)/15 μg/mL apotransferrin (product of Sigma-Aldrich Japan, KK., trade name: apo-Transferrin human)/7 μg/mL insulin (product of Wako Pure Chemical Industries, Ltd., trade name: Insulin, Human, recombinant)/0.45 mM 1-Thioglycerol (product of Sigma-Aldrich Japan, KK.)] with addition of 10 μM SB-431542 (product of Selleck Chemicals) and 1 μM CHIR99021 (product of Wako Pure Chemical Industries, Ltd.), the patient-derived iPS cell line and gene-corrected iPS cell line were further cultured for 1 week under feeder-free conditions for differentiation to neural crest cells. […]
After mixing Firefly luciferase reporter plasmid having the BMP responsive sequence in the promoter region (J. Biol. Chem., 2002, 277(7), 4883-4891) and a plasmid having a nucleic acid sequence coding for Renilla luciferase downstream from CMV promoter, as an internal standard (product of Promega Corp., trade name: phRL-CMV Vector), FuGene® HD (Promega Corp.) was used for transfection into the mesenchymal stem cell-like cells. […] Next, the luciferase activity was measured according to the protocol provided with a Dual-Glo Luciferase Assay System (product of Promega Corp.). The luminescence was detected using an EnVision Multilabel Counter (product of Perkin-Elmer). […]

[1] = test system: FOP patient derived cells; assay: Differentiation to chondrocytes (Alcian blue, sulfated glycosaminoglycan assay) of FOP patient derived cells; type: cell-based, human; settings: for cartilage induction (sulfated glycosaminoglycan assay): 100 ng/mL activin A, vs untreated group
Description: Mesenchymal stem cell-like cells from a patient iPS cell line and a gene-corrected iPS cell clone were each prepared by the same method as Example 1. The mesenchymal stem cell-like cells were cultured for 6 days under the medium conditions used in the method of Umeda et al. (Sci. Rep., 2012, 2, 455), for differentiation to chondrocytes. During differentiation, 100 ng/mL of human activin A, 100 ng/mL of human BMP-7 or 1 ng/mL of human TGF-β3 (product of R&D Systems, Inc., trade name: Recombinant Human TGF-beta 3) was added and the effect of each factor on differentiation to chondrocytes was examined. The extent of differentiation to chondrocytes was measured with Alcian blue dye and a sulfated glycosaminoglycan assay kit (product of Biocolor, Ltd., trade name: Blyscan Glycosaminoglycan Assay Kit). In FIG. 4, the bar graph indicates the mean values for each treated group, and the error bars represent S.D.

[2] = FOP patient derived cells, 100 ng/mL BMP-7 or 1 ng/mL TGF-β3, 6 days

Row | Molecule | transcription activity via ACVR1 (firefly/Renilla luciferase activity, BMP responsive sequence) (wild type ACVR1) | sulfated glycosaminoglycan production in FOP patient derived cells compared to gene-corrected cells ([1]; 100 ng/mL, 6 days) | cartilage induction (sulfated glycosaminoglycan assay) [1, 2] | differentiation to chondrocytes (Alcian blue staining) ([1]; FOP patient derived cells, 100 ng/mL, 6 days) | cartilage induction effect compared to the effect exhibited by activin A on FOP patient derived cells ([1]; 100 ng/mL BMP-7 or 1 ng/mL TGF-β3, 6 days)
1 | human activin A: Recombinant Human/Mouse/Rat Activin A (R&D Systems); homodimer of inhibin βA chains | not seen | 4 fold | very notably enhances | notably enhances | 
2 | BMP-7: Recombinant Human BMP-7 (R&D Systems); cytokine of the BMP family (protein) STGSKQRSQNRSKTPKNQEALRMANVAENSSSDQRQACKKHELYVSFRDLGWQDWIIAPEGYAAYYCEGECAFPLNSYMNATNHAIVQTLVHFINPETVPKPCCAPTQLNAISVLYFDDSSNVILKKYRNMVVRACGCH | increased in a concentration-dependent manner |  | significantly enhanced |  | weaker
